These results are taken from paper PMC12102759 (2025).

The chains are these.
B1: AXIN1 peptide 235-250 (Axin-1), 16-mer library wild type / PP2A B56 (PPP2R5A B56 domain, residues 1-486) (parent complex)
chain 1: SGYLPTLNEDEEWKAD
chain 2: not shown

Variants of B1 are the subject of the experiment. Briefly: proteomic peptide phage display deep mutational scan (ProP-PD DMS): M13 P8 16-mer library selected against immobilised GST-tagged bait for four days (rounds), NGS of the eluted pools per day and pseudo-replica; bait immobilised on MaxiSorp plates (10 µg), library pre-cleared on GST, 2 h binding at 4 °C, five washes; one round per day, days 1-4; value from days 2 and 3.
For chain 1 A15H, the screen value is 0.00152 average fractional NGS count over selection days 2 and 3 (reads of this peptide / all reads for the bait, averaged over ….

Regarding chain 1 A15V, the screen value is 0.00273 average fractional NGS count over selection days 2 and 3 (reads of this peptide / all reads for the bait, averaged over ….

For the variant chain 1 A15Q, the screen value was 0.000281 average fractional NGS count over selection days 2 and 3 (reads of this peptide / all reads for the bait, averaged over ….

Take chain 1 A15E: the screen value is 0.000423 average fractional NGS count over selection days 2 and 3 (reads of this peptide / all reads for the bait, averaged over ….

As for chain 1 A15I, the screen value was 0.000279 average fractional NGS count over selection days 2 and 3 (reads of this peptide / all reads for the bait, averaged over ….

Consider chain 1 E12S, for which the screen value was 0.000153 average fractional NGS count over selection days 2 and 3 (reads of this peptide / all reads for the bait, averaged over ….

As for chain 1 E12M, the screen value is 0.000888 average fractional NGS count over selection days 2 and 3 (reads of this peptide / all reads for the bait, averaged over ….

As to chain 1 E12Y, the screen value is 0.000809 average fractional NGS count over selection days 2 and 3 (reads of this peptide / all reads for the bait, averaged over ….

On to chain 1 E12I, for which the screen value is 0.00181 average fractional NGS count over selection days 2 and 3 (reads of this peptide / all reads for the bait, averaged over ….

With chain 1 G2P, the screen value is 0.0013 average fractional NGS count over selection days 2 and 3 (reads of this peptide / all reads for the bait, averaged over ….

In the case of chain 1 G2T, the screen value was 0.00134 average fractional NGS count over selection days 2 and 3 (reads of this peptide / all reads for the bait, averaged over ….

Turning to chain 1 W13V, the screen value is 0.000494 average fractional NGS count over selection days 2 and 3 (reads of this peptide / all reads for the bait, averaged over ….

Consider chain 1 Y3Q, for which the screen value is 0.000114 average fractional NGS count over selection days 2 and 3 (reads of this peptide / all reads for the bait, averaged over ….

In the case of chain 1 Y3M, the screen value was 0.000836 average fractional NGS count over selection days 2 and 3 (reads of this peptide / all reads for the bait, averaged over ….

For the variant chain 1 Y3W, the screen value is 0.00058 average fractional NGS count over selection days 2 and 3 (reads of this peptide / all reads for the bait, averaged over ….

Regarding chain 1 D16F, the screen value was 0.00025 average fractional NGS count over selection days 2 and 3 (reads of this peptide / all reads for the bait, averaged over ….

chain 1 D16Q: the screen value is 0.00121 average fractional NGS count over selection days 2 and 3 (reads of this peptide / all reads for the bait, averaged over ….

Take chain 1 D16A: the screen value is 0.00219 average fractional NGS count over selection days 2 and 3 (reads of this peptide / all reads for the bait, averaged over ….

For the variant chain 1 K14S, the screen value was 0.000394 average fractional NGS count over selection days 2 and 3 (reads of this peptide / all reads for the bait, averaged over ….

In the case of chain 1 K14A, the screen value is 0.000829 average fractional NGS count over selection days 2 and 3 (reads of this peptide / all reads for the bait, averaged over ….

Consider chain 1 E11M, for which the screen value was 0.00494 average fractional NGS count over selection days 2 and 3 (reads of this peptide / all reads for the bait, averaged over ….

Take chain 1 E11H: the screen value is 0.000134 average fractional NGS count over selection days 2 and 3 (reads of this peptide / all reads for the bait, averaged over ….

For chain 1 E11T, the screen value was 0.0139 average fractional NGS count over selection days 2 and 3 (reads of this peptide / all reads for the bait, averaged over ….

Take chain 1 N8V: the screen value was 0.022 average fractional NGS count over selection days 2 and 3 (reads of this peptide / all reads for the bait, averaged over ….

Take chain 1 N8L: the screen value was 0.000128 average fractional NGS count over selection days 2 and 3 (reads of this peptide / all reads for the bait, averaged over ….

chain 1 D10S: the screen value was 0.000583 average fractional NGS count over selection days 2 and 3 (reads of this peptide / all reads for the bait, averaged over ….

For chain 1 D10Q, the screen value was 0.00101 average fractional NGS count over selection days 2 and 3 (reads of this peptide / all reads for the bait, averaged over ….

chain 1 D10N: the screen value was 0.000347 average fractional NGS count over selection days 2 and 3 (reads of this peptide / all reads for the bait, averaged over ….

For chain 1 D10I, the screen value is 0.00126 average fractional NGS count over selection days 2 and 3 (reads of this peptide / all reads for the bait, averaged over ….

For the variant chain 1 D10W, the screen value is 0.0017 average fractional NGS count over selection days 2 and 3 (reads of this peptide / all reads for the bait, averaged over ….
